Results taken from article PMC5027278.

Target: EphA2 (co-transfected with Anks1a constructs) (UniProt P29317)
Test: not stated; interaction in co-transfected cells, quantified against WT Anks1a (Supplementary Fig. 5f,g)

UniProt P29317, sequence (P29317 24-976): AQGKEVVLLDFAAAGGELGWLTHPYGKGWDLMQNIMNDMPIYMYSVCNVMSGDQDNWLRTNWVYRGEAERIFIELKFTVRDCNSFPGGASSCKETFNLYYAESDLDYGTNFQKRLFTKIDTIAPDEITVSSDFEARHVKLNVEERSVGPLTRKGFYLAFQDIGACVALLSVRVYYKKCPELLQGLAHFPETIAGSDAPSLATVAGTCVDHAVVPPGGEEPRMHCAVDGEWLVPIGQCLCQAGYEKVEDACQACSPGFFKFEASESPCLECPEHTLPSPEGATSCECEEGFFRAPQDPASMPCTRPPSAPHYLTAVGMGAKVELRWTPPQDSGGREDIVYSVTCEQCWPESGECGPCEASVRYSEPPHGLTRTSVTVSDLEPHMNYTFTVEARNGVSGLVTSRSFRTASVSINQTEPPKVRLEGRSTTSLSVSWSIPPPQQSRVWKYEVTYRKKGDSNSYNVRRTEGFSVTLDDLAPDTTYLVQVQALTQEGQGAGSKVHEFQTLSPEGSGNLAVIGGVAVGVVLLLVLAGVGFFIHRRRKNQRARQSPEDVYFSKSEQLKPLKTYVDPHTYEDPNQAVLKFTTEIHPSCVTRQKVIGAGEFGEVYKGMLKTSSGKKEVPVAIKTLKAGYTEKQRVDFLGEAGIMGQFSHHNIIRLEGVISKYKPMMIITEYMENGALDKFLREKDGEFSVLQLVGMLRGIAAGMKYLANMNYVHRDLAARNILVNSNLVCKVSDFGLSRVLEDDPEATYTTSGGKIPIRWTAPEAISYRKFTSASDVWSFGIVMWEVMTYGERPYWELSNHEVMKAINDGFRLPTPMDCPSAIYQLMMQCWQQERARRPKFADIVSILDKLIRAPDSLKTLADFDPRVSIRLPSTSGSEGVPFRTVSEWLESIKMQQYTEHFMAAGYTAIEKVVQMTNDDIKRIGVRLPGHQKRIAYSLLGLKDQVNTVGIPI

Anks1a-S647A/S663A double mutant (Ser DM) (natural protein)
binding relative to WT Anks1a: 50%
